Test results from paper PMC9478674 (Proceedings of the National Academy of Sciences of the …, 2022).

Molecular target: T1, KaiC S431E;T432A (KaiC-EA) (UniProt Q79PF4 1-519, S431E | T432A)
T1 sequence (looked up): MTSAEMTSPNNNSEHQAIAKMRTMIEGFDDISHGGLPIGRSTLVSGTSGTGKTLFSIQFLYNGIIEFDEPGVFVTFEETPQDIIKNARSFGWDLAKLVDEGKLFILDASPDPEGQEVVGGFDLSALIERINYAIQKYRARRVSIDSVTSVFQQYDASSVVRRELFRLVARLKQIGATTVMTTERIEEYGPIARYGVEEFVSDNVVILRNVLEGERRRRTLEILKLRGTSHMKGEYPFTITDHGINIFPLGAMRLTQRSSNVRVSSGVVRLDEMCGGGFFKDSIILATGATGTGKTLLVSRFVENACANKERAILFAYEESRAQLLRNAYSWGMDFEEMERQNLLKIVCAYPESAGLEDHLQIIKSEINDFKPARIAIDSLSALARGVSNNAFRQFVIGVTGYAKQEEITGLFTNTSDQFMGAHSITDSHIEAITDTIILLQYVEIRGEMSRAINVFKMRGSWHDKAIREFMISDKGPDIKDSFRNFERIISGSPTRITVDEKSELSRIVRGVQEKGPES
Assay: co-IP

B1: wildtype KaiB-FLAG (natural protein, UniProt Q79PF5 1-102, looked up)
chain: MSPRKTYILKLYVAGNTPNSVRALKTLKNILEVEFQGVYALKVIDVLKNPQLAEEDKILATPTLAKVLPLPVRRIIGDLSDREKVLIGLDLLYGELQDSDDF
binding result: binds
